Legend:
[1] = biological target: E1E2 S432A (H77 alanine-scanning library clone) (hepatitis C virus genotype 1a, strain H77); experiment: flow cytometry on cells
[2] = biological target: E1E2 Y443A (H77 alanine-scanning library clone) (hepatitis C virus genotype 1a, strain H77); experiment: flow cytometry on cells

B1: monoclonal antibody AR3C (antibody, V domains shown)
VH: VQLLEQSGAEVKKPGSSVKVSCETSGGTFDNYALNWVRQAPGQGLEWIGGVVPLFGTTRNAQKFQGRVTISDDKSTGTGHMELRSLRSEDTAVYYCVRSVTPRYCGGGFCYGEFDYWGQGTLVTVSS
VL: EIELTQSPATLSVSPGERATLSCRASQSVSSNLAWYQQKPGQAPRLLIYGASTRATGIPARFSGSGSGTEFTLTVSRLEPEDSAVYFCQQYYRSPLTFGGGTKVEIK
- % reactivity (of wild type) [1]: 55%
- % reactivity (of wild type) [2]: 15%
